Laboratory results: publication PMC4918325, “Mto2 multisite phosphorylation inactivates non-spindle microtubule nucleation complexes during mitosis” (Nature Communications, 2015)

Biological target: T1, Mto1-SZZ (protein A-tagged Mto1) (Schizosaccharomyces pombe, UniProt O94488 1-1115)
T1 construct: Mto1, Schizosaccharomyces pombe; Bait of all IgG-bead pulldowns; also called SZZ-tagged Mto1; source: S. pombe, gene tagged by PCR-based methods, in cell extract
T1 sequence (looked up): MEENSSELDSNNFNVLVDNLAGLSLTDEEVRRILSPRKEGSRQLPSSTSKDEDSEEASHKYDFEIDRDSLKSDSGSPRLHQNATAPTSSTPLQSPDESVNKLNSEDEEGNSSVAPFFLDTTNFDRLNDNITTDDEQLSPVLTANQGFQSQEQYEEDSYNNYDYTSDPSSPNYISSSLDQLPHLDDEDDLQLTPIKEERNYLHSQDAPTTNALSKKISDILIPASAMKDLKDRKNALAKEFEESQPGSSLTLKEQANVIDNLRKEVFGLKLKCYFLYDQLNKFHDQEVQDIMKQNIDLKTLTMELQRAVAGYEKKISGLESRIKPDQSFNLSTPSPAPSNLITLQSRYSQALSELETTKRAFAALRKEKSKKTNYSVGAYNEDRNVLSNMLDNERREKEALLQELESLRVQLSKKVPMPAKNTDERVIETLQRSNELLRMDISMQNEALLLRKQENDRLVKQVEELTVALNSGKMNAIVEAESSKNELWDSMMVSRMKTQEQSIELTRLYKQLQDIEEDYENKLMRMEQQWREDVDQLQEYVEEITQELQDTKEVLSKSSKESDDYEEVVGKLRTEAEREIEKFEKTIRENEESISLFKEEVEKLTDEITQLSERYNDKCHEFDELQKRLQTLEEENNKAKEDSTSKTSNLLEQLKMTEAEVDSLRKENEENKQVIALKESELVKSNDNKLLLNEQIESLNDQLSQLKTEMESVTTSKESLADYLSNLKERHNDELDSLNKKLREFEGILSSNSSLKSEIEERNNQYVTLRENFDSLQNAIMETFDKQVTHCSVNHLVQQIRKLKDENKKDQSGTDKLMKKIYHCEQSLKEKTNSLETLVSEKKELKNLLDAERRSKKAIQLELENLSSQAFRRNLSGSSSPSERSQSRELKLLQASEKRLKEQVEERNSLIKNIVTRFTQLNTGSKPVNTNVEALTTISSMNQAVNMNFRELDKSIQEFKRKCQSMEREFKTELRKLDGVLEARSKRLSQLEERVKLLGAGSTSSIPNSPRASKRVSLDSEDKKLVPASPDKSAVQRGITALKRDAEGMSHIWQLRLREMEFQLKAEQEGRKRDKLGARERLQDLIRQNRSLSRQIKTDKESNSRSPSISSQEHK
Test: pull-down; IgG-coupled Dynabeads pull Mto1-SZZ from extracts of interphase (asynchronous) S. pombe cells (mto2+, mto2[6A], mto2[13A], mto2[17A], mto2[24A]); 90 min at 4 °C; lysis buffer 25 mM sodium phosphate pH 7.5, 100 mM KCl, 0.5 mM EDTA, 0.2% Triton X-100 with protease and phosphatase inhibitors; western blot
Settings: partners not purified

B1: Gtb1 (S. pombe γ-tubulin) (natural protein, UniProt P25295 1-446, looked up)
chain: MGREIITLQAGQCGNQIGSQFWQQLCLEHGIGPDGTLESFATEGVDRKDVFFYQSDDTRYIPRAILIDLEPRVVNNILSDTYGSLYNPENILITKNGGGAGNNWANGYSHAERIFEDIMDMIDREADGSDSLEGFSLLHSIAGGTGSGLGSFLLERLNDRYPKKIIQTYSVFPNSQSVSDVVVQPYNSLLALKRLTLNADSVVVLDNAALAHIAADRLHTQNPTFHQQNQLVSTVMSASTTTLRYPGYMNNDLVSIIASLIPSPRCHFLLTSYTPFTNQQVEEAKAIRKTTVLDVMRRLLLPKNQMVSVNPSKKSCFISILDIIQGEADPADVHKSLLRIRERRYASFIPWGPASIQVALSKKSPYIKTNHRVSGLMLANHTSIASLFKRTLDQYDRLRKRNAFLEQYKKEAIFEDDLNEFDSSRDVVADLINEYEACEDPNYLSL
notes: γ-tubulin Gtb1, Schizosaccharomyces pombe; Detected by anti-γ-tubulin blot (GTU-88); also called read-out of the γ-tubulin complex (γ-TuC); source: endogenous, S. pombe cell extract
fold change of γ-tubulin copurifying with Mto1-SZZ in mto2[6A] cells relative to wild-type cells: ~1.5 fold | fold change of γ-tubulin copurifying with Mto1-SZZ in mto2[13A] cells relative to wild-type cells: ~1.5 fold | fold change of γ-tubulin copurifying with Mto1-SZZ in mto2[17A] cells relative to wild-type cells: ~3 fold
